The target in experiment [1] is T1, Venus-tagged full length GPR158 (mGlyR) transiently expressed on HEK293 cells (human, UniProt Q5T848 24-1215).
T1 construct: This is the flow cytometry target; not shown: Venus tag
T1 sequence: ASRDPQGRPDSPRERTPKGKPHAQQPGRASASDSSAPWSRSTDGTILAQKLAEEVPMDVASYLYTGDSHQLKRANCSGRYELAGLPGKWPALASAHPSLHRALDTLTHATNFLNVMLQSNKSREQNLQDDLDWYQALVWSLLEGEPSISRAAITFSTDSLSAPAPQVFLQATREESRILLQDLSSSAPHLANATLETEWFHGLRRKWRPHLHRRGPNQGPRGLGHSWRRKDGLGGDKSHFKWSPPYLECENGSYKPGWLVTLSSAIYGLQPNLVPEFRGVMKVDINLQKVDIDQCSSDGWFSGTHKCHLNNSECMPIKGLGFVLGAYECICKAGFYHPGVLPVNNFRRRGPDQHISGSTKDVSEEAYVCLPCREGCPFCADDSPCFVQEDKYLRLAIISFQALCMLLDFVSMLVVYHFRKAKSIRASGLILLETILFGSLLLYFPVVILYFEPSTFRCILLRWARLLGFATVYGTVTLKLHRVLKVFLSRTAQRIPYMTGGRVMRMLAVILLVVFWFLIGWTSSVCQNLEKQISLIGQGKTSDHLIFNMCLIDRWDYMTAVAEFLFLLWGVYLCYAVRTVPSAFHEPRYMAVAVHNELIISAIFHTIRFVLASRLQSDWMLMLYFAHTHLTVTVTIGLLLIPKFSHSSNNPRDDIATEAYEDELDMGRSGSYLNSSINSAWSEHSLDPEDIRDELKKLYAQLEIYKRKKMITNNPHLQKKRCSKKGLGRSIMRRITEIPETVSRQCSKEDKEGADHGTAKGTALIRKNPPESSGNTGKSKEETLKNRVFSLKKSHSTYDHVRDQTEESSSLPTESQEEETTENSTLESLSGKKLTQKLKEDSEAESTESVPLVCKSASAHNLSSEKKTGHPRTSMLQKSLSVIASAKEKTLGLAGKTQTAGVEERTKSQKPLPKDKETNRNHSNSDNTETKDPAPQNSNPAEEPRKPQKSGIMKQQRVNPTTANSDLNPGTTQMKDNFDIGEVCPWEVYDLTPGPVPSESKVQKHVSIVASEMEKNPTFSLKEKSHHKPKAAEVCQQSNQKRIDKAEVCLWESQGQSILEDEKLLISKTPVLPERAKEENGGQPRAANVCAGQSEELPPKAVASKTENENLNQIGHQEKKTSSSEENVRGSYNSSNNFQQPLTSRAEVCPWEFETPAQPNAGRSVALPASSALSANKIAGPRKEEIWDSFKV
In words: flow cytometry titration on GPR158-transfected HEK293 cells. Background: A flow cytometer gives signals particle by particle.

Experiment [2] has as its target T1, Venus-tagged full length GPR158 (mGlyR) …. In words: flow cytometry, % of positive cells against Log [Nanobody] (M), cells expressing mGlyR, n=3, detection with anti-myc-APC.
Protocol: Error bars are SEM values (n=3 independent experiments).
HEK293FT cells were cultured in 6 well plates at the density of 1.10⁶ per well and transfected with 2 μg of cDNA of mGlyR or empty pcDNA3.1+ in control experiments, using Metafectene Pro. 48 h after transfection, cells were mechanically detached pipetting up-down, washed in PBS supplemented with 0.1% BSA, counted and incubated in PBS-0.1% BSA for 1 h at 4° C. under rotation. […] After 3 washes, cells were analyzed in LSR-II BD flow cytometer. Gating strategy to sort individual cells to debris and doublets was used.
The target of experiment [3] is T2, mGlyR (GPR158) co-expressed in HEK293FT cells in the BRET-based GAP assay (human, UniProt Q5T848 24-1215).
T2 sequence: T1 sequence
In words: cell-based or functional assay.

This note sets out measurements from patent US20260193347A1 (UNIVERSITY OF FLORIDA RESEARCH FOUNDATION, published 2026).

B1: llama nanobody Nb20 (Nanobody-20), purified recombinant, myc- and His-tagged (VHH, not shown: small tags and cut ends)
VHH: EVQLQESGGGLVQAGGSLRLSCAASGSIGNIYIMGWYRQTPGPQRELVATIRTVRWTKYEDYADSVKGRFTISDDDAKNTVYLQMNSLKPEDTAVYYCNYKDYNAPSDGYWGQGTQVTVSS
notes: Expressed in E. coli BL21 DE3 from pET28a and purified on Ni-IDA; Detected by an anti-myc-APC antibody in flow cytometry; The two passages disagree on where the tags sit; also called clone number 20
In general, EC50 refers to the midpoint of the concentration-response curve. Low readings indicate higher potency in that assay, high ones lower potency in that assay. B1 yielded an EC50 in experiment [1] of approximately 10 nM. The molecule further returned an EC50 in experiment [2] of 9.9 nM. In experiment [3], the “IC50, dose-response of changes in GAP activity (BRET-based GAP assay)” value was approximately 6 nM and the “IC50, inhibition of GAP activity of GPR158 via RGS7/Gβ5 (BRET-based GAP assay)” value came out at 5.77 nM.
